Patent US20220049016A1 (ZYMEDI, published 2022)

Legend:
NRP1-b1b2 = biological target: T1, NRP1-b1b2 (UniProt O14786 273-586, limits assumed); assay: ELISA, coated antigen printed as NRP1
T1 construct: domain: b1b2; Negative control antigen
T1 sequence (looked up): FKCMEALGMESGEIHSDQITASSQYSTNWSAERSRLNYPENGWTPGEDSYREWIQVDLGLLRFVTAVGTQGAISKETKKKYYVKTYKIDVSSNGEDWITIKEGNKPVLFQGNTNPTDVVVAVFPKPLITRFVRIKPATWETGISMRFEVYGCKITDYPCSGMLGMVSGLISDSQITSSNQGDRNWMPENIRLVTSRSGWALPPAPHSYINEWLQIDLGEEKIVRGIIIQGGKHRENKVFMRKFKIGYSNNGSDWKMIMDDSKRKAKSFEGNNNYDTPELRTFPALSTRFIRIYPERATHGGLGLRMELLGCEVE

KRS fragment (1-207aa) [1] = biological target: T2, KRS fragment (1-207aa) (human, UniProt Q15046 1-207); assay: SPR, Biacore T200, antibody amine-coupled on CM5, KRS (1-207aa) as analyte, 25 C
T2 construct: range 1-207; also called purified protein of the KRS fragment (1-207aa); KRS protein
T2 sequence (Q15046 1-207 limits assumed): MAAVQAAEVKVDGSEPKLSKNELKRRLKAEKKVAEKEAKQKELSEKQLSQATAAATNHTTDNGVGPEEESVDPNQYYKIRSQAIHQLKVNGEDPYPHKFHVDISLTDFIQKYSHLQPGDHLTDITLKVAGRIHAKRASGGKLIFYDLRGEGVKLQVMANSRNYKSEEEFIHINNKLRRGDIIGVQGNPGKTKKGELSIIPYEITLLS

KRS fragment (1-207aa) [2] = biological target: T2, KRS fragment (1-207aa); assay: SPR (Biacore T200), antibody immobilised on CM5, KRS 1-207 flowed at 4.8 to 1250 nM
KRS epitope peptide F4 = biological target: T3, KRS epitope peptide F4; assay: SPR, Biacore T200, antibody on the chip, peptide F4 as analyte
T3 peptide: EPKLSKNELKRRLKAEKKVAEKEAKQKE
Method: The SPR experiment was performed using a Biacore T200 (GE Healthcare) equipped with a Series S sensor chip CM5 (GE Healthcare) at 25° C. After the antibody was immobilized on the chip using an amine coupling kit (GE Healthcare), the antigen was diluted 4 times in PBS solution in the range of 4.8 nM-1250 nM and flowed for 60 seconds. Thereafter, PBS was flowed for 300 seconds. The obtained data was analyzed with Biacore T200 Evaluation software v2.0 (GE Healthcare).
After that, PBS was flowed for 2400 seconds. The obtained data was analyzed with Biacore T200 Evaluation software v2.0 (GE Healthcare).

B1: N3-8 antibody (IgG) (antibody)
heavy: not shown
light: QSVLTQPPSASGTPGQRVTISCTGSSSNIGSNYVTWYQQLPGTAPKLLIYDNSNRPSGVPDRFSGSKSGTSASLAISGLQSEDEADYYCSSFSDELGAYVFGGGTKLTVLRTVAAPSVFIFPPSDEQLKSGTASVVCLLNNFYPREAKVQWKVDNALQSGNSQESVTEQDSKDSTYSLSSTLTLSKADYEKHKVYACEVTHQGLSSPVTKSFNRGEC
notes: Whole IgG1; also called N3-8 IgG
binding result (NRP1-b1b2): no binding (tested: 10 nM)

B2: N3-1 antibody (IgG) (antibody)
chain 1: EVQLLESGGGLVQPGGSLRLSCAASGFTFSSYDMSWVRQAPGKGLEWVSAISYDNGNTYYADSVKGRFTISRDNSKNTLYLQMNSLRAEDTAVYYSARMALDFDYWGQGTLVTVSS
chain 2: QSVLTQPPSASGTPGQRVTISCTGSSSNIGSNYVTWYQQLPGTAPKLLIYDNSNRPSGVPDRFSGSKSGTSASLAISGLQSEDEADYYCASFSDELGAYVFGGGTKLTVL
Kd (KRS fragment (1-207aa) [1]): 31 nM
koff (KRS fragment (1-207aa) [2]): 0.0206 s⁻¹
kon (KRS fragment (1-207aa) [2]): 664000 M⁻¹ s⁻¹

B3: N3-8-4 antibody (IgG) (antibody, V domains shown)
VH: EVQLLESGGGLVQPGGSLRLSCAASGFTFSSYDMSWVRQAPGKGLEWVSAISPYSGRIYYADSVKGRFTISRDNSKNTLYLQMNSLRAEDTAVYYCARLALDFDYWGQGTLVTVSS
VL: QSVLTQPPSASGTPGQRVTISCTGSSSNIGSNYVTWYQQLPGTAPKLLIYDNSNRPSGVPDRFSGSKSGTSASLAISGLQSEDEADYYCSSFSDELGAYVFGGGTKLTVLG
notes: Whole IgG1, N3-8 derivative; also called N3-8-4 IgG
Kd (KRS epitope peptide F4): 10.1 nM
koff (KRS epitope peptide F4): 0.0009 s⁻¹
kon (KRS epitope peptide F4): 89500 M⁻¹ s⁻¹
